The values below come from patent US20080124335A1 (NATIONAL CEREBRAL AND CARDIOVASCULAR CENTER, published 2008).

No end group written: not given here.

The target of assay [1] is T1, human FM-3 (human, UniProt Q9HB89 24-426).
T1 sequence: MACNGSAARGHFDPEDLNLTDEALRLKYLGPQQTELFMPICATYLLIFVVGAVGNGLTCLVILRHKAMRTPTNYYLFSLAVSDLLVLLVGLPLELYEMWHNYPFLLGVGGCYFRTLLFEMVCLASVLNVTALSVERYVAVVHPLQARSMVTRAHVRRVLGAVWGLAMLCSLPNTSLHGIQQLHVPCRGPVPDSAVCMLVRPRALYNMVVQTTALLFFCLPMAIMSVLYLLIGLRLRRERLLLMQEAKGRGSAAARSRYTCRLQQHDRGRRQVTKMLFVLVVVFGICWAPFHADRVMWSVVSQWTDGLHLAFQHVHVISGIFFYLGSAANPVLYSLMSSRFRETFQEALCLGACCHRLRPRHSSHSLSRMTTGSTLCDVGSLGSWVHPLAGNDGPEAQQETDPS
Description: cell-based or functional assay.

The target of assay [2] is T2, human TGR1 (human, UniProt Q9GZQ4 1-415). In words: cell-based or functional assay.
Assay [3] has as its target T1, human FM-3. In words: radioligand competition: crude membrane fraction (10 µg) of CHO cells expressing human FM-3, 50 pM [^125I-Tyr^0]-NMS, filtration. Here is the method:
(§1) The receptor binding test was conducted by an improvement of the Gottschall, et al. method (Gottschall, P. E., et al., Endocrinology, 127, 272, 1990). A crude cell membrane fraction was prepared from human FM-3 or human TGR1-expressed CHO cells. Also, human NMS ([Tyr⁰]-NMS) added with Tyr at the N terminus was radioactively labeled with ¹²⁵I and then purified on HPLC. The crude cell membrane fraction (10 μg) and the radiolabeled peptide (50 pM) were reacted at room temperature for 2 hours in a buffer supplemented with 0.05% CHAPS and 1% BSA in the presence of a competitive peptide. The reaction product was filtered to separate the bound from the unbound radiolabeled peptide. The radioactivity was measured with a TopCount liquid scintillation counter (Packard).
(In general: Loss of bound radioactivity is the signal in a displacement assay; it reports binding, not function.)

The target in assay [4] is T2, human TGR1. In words: radioligand competition: crude membrane fraction (10 µg) of CHO cells expressing human TGR1, 50 pM [^125I-Tyr^0]-NMS, filtration. Here is the method:
as §1

T2 sequence (Q9GZQ4 other isoform, or with tags, fused parts or gaps): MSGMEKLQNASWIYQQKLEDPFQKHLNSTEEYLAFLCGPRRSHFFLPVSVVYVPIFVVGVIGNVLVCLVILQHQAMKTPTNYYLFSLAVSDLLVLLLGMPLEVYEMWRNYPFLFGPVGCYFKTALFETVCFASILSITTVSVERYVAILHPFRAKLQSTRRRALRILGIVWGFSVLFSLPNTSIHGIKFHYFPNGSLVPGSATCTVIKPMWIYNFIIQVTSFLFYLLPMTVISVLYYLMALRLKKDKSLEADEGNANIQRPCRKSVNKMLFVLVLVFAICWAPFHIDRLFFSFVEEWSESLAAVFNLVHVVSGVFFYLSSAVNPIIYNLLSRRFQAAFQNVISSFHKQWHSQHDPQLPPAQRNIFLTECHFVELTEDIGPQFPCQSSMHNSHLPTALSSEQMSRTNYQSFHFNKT

As a reminder, the IC50 is the concentration needed to halve the response being measured. A higher IC50 goes with weaker potency in that assay. As to ILQRGSGTAAVDFTKKDHTATWGRPFFLFRPRN (ends and bridges not checked, also called human NMS; NMS) [human neuromedin S], the “intracellular Ca ion level increase (calcium-mobilization assay, FLIPR), EC50” value in assay [1] worked out at 0.065 nM; in assay [2], 0.091 nM. Moreover, the 50% inhibitory concentration (IC50) in assay [3] was 1.2 nM; in assay [4], 0.1 nM.
